From patent publication US20170137512A1 (Ablynx, published 2017)
Like-named read-outs stand apart in the source and are kept apart here.

What was measured:
[1] = molecular target: T1, human Kv1.3 (Homo sapiens, UniProt P22001 1-575); test: cell-based or functional assay
[2] = molecular target: T1, human Kv1.3; test: cell-based or functional assay; remark: listed apart in the source
[3] = molecular target: T2, cyno Kv1.3 (Macaca fascicularis, UniProt P22001 1-575 (human entry)); test: FACS, CHO cells expressing cyno Kv1.3, with 50 µM HSA
T2 construct: Expressed on CHO cells; also called cyKv1.3; cynomolgus Kv1.3
T2 chain: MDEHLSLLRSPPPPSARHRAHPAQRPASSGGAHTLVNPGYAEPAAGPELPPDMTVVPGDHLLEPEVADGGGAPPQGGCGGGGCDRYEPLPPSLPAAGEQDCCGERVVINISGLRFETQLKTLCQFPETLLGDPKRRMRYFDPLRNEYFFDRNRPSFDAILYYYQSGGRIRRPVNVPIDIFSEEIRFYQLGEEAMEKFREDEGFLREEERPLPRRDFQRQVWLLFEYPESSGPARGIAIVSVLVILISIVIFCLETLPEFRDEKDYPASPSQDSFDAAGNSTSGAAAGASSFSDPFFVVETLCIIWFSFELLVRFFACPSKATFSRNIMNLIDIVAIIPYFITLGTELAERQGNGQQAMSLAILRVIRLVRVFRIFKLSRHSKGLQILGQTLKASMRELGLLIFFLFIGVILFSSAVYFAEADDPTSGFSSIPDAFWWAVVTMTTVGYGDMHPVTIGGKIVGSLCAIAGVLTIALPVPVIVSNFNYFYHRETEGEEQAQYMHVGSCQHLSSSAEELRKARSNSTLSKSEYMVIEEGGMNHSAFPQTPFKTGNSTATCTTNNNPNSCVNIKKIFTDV

[4] = molecular target: T3, rat Kv1.3 (Rattus norvegicus, UniProt P15384 1-525); test: FACS, CHO cells expressing rat Kv1.3, with 50 µM HSA
T3 construct: Expressed on CHO cells

[5] = molecular target: T2, cyno Kv1.3; test: FACS, CHO cells expressing cyno Kv1.3
[6] = molecular target: T1, human Kv1.3; test: cell-based or functional assay; remark: listed apart in the source
[7] = molecular target: T2, cyno Kv1.3; test: FACS, CHO cells expressing cyno Kv1.3
[8] = molecular target: T1, human Kv1.3; test: cell-based or functional assay; remark: listed apart in the source
[9] = molecular target: T1, human Kv1.3; test: FACS, CHO cells expressing human Kv1.3
[10] = molecular target: T2, cyno Kv1.3
[11] = molecular target: T3, rat Kv1.3; test: FACS, CHO cells expressing rat Kv1.3
[12] = molecular target: T3, rat Kv1.3; test: FACS, CHO cells expressing rat Kv1.3; remark: listed apart in the source
[13] = molecular target: T1, human Kv1.3; test: cell-based or functional assay; remark: listed apart in the source
[14] = molecular target: T1, human Kv1.3; test: cell-based or functional assay; remark: listed apart in the source
[15] = molecular target: T3, rat Kv1.3; test: FACS, CHO cells expressing rat Kv1.3; remark: listed apart in the source
[16] = molecular target: T2, cyno Kv1.3; test: FACS, CHO cells expressing cyno Kv1.3
[17] = molecular target: T2, cyno Kv1.3
[18] = molecular target: T1, human Kv1.3; test: FACS, CHO cells expressing human Kv1.3; remark: listed apart in the source
[19] = molecular target: T1, human Kv1.3; test: cell-based or functional assay; remark: listed apart in the source
[20] = molecular target: T1, human Kv1.3

T1 sequence (P22001 whole entry): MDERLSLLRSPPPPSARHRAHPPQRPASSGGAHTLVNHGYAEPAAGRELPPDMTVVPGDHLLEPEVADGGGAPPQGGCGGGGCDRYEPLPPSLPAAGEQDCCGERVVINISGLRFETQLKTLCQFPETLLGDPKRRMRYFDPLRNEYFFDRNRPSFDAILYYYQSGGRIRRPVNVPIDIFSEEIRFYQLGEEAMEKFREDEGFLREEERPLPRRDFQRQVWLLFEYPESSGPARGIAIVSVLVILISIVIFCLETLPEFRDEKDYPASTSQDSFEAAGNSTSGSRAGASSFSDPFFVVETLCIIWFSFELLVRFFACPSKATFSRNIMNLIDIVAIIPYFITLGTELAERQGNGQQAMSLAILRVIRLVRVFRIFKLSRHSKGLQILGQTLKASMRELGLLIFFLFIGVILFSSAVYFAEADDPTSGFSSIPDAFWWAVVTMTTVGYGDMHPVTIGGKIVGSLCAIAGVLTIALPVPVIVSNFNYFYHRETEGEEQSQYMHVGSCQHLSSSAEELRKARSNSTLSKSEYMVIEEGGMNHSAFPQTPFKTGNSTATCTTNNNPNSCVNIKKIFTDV

B1: A019400009 (VHH)
chain: EVQLVESGGGLVQAGGSLGLSCSASGLLFSRNSAGWYRQAPGKQREFVARIRMGGSINYADTVKGRFTISRDNAKNTVYLQMNSLKPEDTAVYYCSSWRTGFYEYWGQGTLVTVSSGGGGSGGGGSGGGGSGGGGSGGGGSGGGGSGGGGSEVQLVESGGGLVQAGGSLGLSCSASGLLFSRNSAGWYRQAPGKQREFVARIRMGGSINYADTVKGRFTISRDNAKNTVYLQMNSLKPEDTAVYYCSSWRTGFYEYWGQGTLVTVSS
Average IC50, Kv1.3 current, IonWorks perforated patch clamp, CHL cells [1]: 0.81 nM
Average IC50, Kv1.3 current, IonFlux automated patch clamp, HEK293H cells [2]: 0.73 nM

B2: A019400013 (VHH)
chain: EVQLVESGGGLVQAGGSLGLSCSASGLLFSRNSAGWYRQAPGKQREFVARIRMGGSINYADTVKGRFTISRDNAKNTVYLQMNSLKPEDTAVYYCSSWRTGFYEYWGQGTLVTVSSGGGGSGGGGSGGGGSGGGGSGGGGSGGGGSGGGGSEVQLVESGGGLVQAGGSLGLSCSASGLLFSRNSAGWYRQAPGKQREFVARIRMGGSINYADTVKGRFTISRDNAKNTVYLQMNSLKPEDTAVYYCSSWRTGFYEYWGQGTLVTVSS
notes: Bivalent Nanobody construct (family 12 - family 12), without Alb11; also called A0194009G09-35GS-A0194009G09
EC50 [3]: 0.45 nM
EC50 [4]: 0.85 nM
EC50 [5]: 0.24 nM
IC50, CD25 read out, CCR7-CD45RA- T cells stimulated with anti-CD3 [6]: 0.12 nM
IC50, IFNγ read out, CCR7-CD45RA- T cells stimulated with anti-CD3 [6]: 0.083 nM
EC50 [7]: 0.33 nM
IC50, CD25 read out, T cell activation assay [8]: 0.12 nM
IC50, CD25 read out, T cell activation assay, with 10 µM HSA [8]: 0.037 nM
IC50, IFNγ read out, T cell activation assay [8]: 0.083 nM
IC50, IFNγ read out, T cell activation assay, with 10 µM HSA [8]: 0.031 nM
EC50 [9]: 0.32 nM
IC50 [10]: 0.66 nM
EC50 [11]: 0.49 nM
EC50 [12]: 0.704 nM

B3: A019400014 (other)
chain: EVQLVESGGGLVQAGGSLSLSCTASGGTFRNFGMGWFRQAQGKEREFVAAISRTGGHTYYQDSVKGRFTISKDNAKNILSLQMNSLKPEDTAVYYCAARFRFGDGTYYYQRAFYDFWGQGTLVTVSSGGGGSGGGGSGGGGSGGGGSGGGGSGGGGSGGGGSEVQLVESGGGLVQAGGSLGLSCSASGLLFSRNSAGWYRQAPGKQREFVARIRMGGSINYADTVKGRFTISRDNAKNTVYLQMNSLKPEDTAVYYCSSWRTGFYEYWGQGTLVTVSS
notes: Biparatopic Nanobody construct (family 1 - family 12); also called A019400003-35GS-A0194009G09; A019400011
Average IC50, Kv1.3 current, IonWorks perforated patch clamp, CHL cells [1]: 14 nM
Average IC50, Kv1.3 current, IonFlux automated patch clamp, HEK293H cells [2]: 14 nM
EC50 [5]: 0.41 nM
IC50, CD25 read out, CCR7-CD45RA- T cells stimulated with anti-CD3 [6]: 0.11 nM
IC50, IFNγ read out, CCR7-CD45RA- T cells stimulated with anti-CD3 [6]: 0.32 nM
EC50 [9]: 1.1 nM
IC50 [10]: 0.61 nM
EC50 [11]: 0.74 nM

B4: A0194009G09 (VHH)
VHH: EVQLVESGGGLVQAGGSLGLSCSASGLLFSRNSAGWYRQAPGKQREFVARIRMGGSINYADTVKGRFTISRDNAKNTVYLQMNSLKPEDTAVYYCSSWRTGFYEYWGQGTLVTVSS
notes: Monovalent Nanobody of family 12; not shown: triple Flag, His6 tag
Average IC50, Kv1.3 current, IonWorks perforated patch clamp, CHL cells [13]: 37 nM
Average IC50, Kv1.3 current, IonFlux automated patch clamp, HEK293H cells [14]: 8.2 nM
EC50 [15]: 240 nM
EC50 [16]: 11 nM
IC50 [17]: 9.8 nM
EC50 [18]: 7.9 nM
IC50, CD25 read out, CCR7-CD45RA- T cells stimulated with anti-CD3 [19]: 62 nM
IC50, IFNγ read out, CCR7-CD45RA- T cells stimulated with anti-CD3 [19]: 47 nM
IC50 (read off the curve) [20]: ~10 nM

B5: A019400012 (other)
chain: EVQLVESGGGLVQAGGSLGLSCSASGLLFSRNSAGWYRQAPGKQREFVARIRMGGSINYADTVKGRFTISRDNAKNTVYLQMNSLKPEDTAVYYCSSWRTGFYEYWGQGTLVTVSSGGGGSGGGGSGGGGSGGGGSGGGGSGGGGSGGGGSEVQLVESGGGLVQAGGSLSLSCTASGGTFRNFGMGWFRQAQGKEREFVAAISRTGGHTYYQDSVKGRFTISKDNAKNILSLQMNSLKPEDTAVYYCAARFRFGDGTYYYQRAFYDFWGQGTLVTVSS
Average IC50, Kv1.3 current, IonWorks perforated patch clamp, CHL cells [1]: 4.2 nM
Average IC50, Kv1.3 current, IonFlux automated patch clamp, HEK293H cells [2]: 4.2 nM
IC50, CD25 read out, CCR7-CD45RA- T cells stimulated with anti-CD3 [6]: 0.31 nM
IC50, IFNγ read out, CCR7-CD45RA- T cells stimulated with anti-CD3 [6]: 0.31 nM
IC50 [10]: 0.5 nM

B6: A019400015 (VHH)
chain: EVQLVESGGGLVQAGGSLGLSCSASGLLFSRNSAGWYRQAPGKQREFVARIRMGGSINYADTVKGRFTISRDNAKNTVYLQMNSLKPEDTAVYYCSSWRTGFYEYWGQGTLVTVSSGGGGSGGGGSGGGGSGGGGSGGGGSGGGGSGGGGSEVQLVESGGGLVQAGGSLGLSCSASGLLFSRNSAGWYRQAPGKQREFVARIRMGGSINYADTVKGRFTISRDNAKNTVYLQMNSLKPEDTAVYYCSSWRTGFYEYWGQGTLVTVSSGGGGSGGGGSGGGGSGGGGSGGGGSGGGGSGGGGSEVQLVESGGGLVQAGGSLGLSCSASGLLFSRNSAGWYRQAPGKQREFVARIRMGGSINYADTVKGRFTISRDNAKNTVYLQMNSLKPEDTAVYYCSSWRTGFYEYWGQGTLVTVSS
notes: Trivalent Nanobody construct (family 12); also called A0194009G09-35GS-A0194009G09-35GS-A0194009G09
Average IC50, Kv1.3 current, IonWorks perforated patch clamp, CHL cells [1]: 0.8 nM
EC50 [5]: 0.31 nM
IC50, CD25 read out, CCR7-CD45RA- T cells stimulated with anti-CD3 [6]: 0.059 nM
IC50, IFNγ read out, CCR7-CD45RA- T cells stimulated with anti-CD3 [6]: 0.032 nM
EC50 [9]: 0.66 nM
IC50 [10]: 0.2 nM
EC50 [11]: 0.44 nM

B7: A019400032 (VHH)
chain: DVQLVESGGGLVQAGGSLGLSCSASGLLFSRNSAGWYRQAPGKRREFVARIRMGGSINYADSVKGRFTVSRDNAKNMMYLQMNDLKPEDTAVYFCSGWREGFYEYWGQGTLVTVSSGGGGSGGGGSGGGGSGGGGSGGGGSGGGGSGGGGSEVQLVESGGGLVQAGGSLGLSCSASGLLFSRNSAGWYRQAPGKRREFVARIRMGGSINYADSVKGRFTVSRDNAKNMMYLQMNDLKPEDTAVYFCSGWREGFYEYWGQGTLVTVSS
Average IC50, Kv1.3 current, IonWorks perforated patch clamp, CHL cells [1]: 1.2 nM
IC50, CD25 read out, CCR7-CD45RA- T cells stimulated with anti-CD3 [6]: 0.12 nM
IC50, IFNγ read out, CCR7-CD45RA- T cells stimulated with anti-CD3 [6]: 0.069 nM
IC50, CD25 read out, T cell activation assay [8]: 0.12 nM
IC50, CD25 read out, T cell activation assay, with 10 µM HSA [8]: 0.33 nM
IC50, IFNγ read out, T cell activation assay [8]: 0.069 nM
IC50, IFNγ read out, T cell activation assay, with 10 µM HSA [8]: 0.086 nM
IC50 [10]: 0.56 nM

B8: A019400003 (VHH)
VHH: EVQLVESGGGLVQAGGSLSLSCTASGGTFRNFGMGWFRQAQGKEREFVAAISRTGGHTYYQDSVKGRFTISKDNAKNILSLQMNSLKPEDTAVYYCAARFRFGDGTYYYQRAFYDFWGQGTQVTVSS
notes: Monovalent Nanobody of family 1, purified from E. coli TG1; not shown: triple Flag, His6 tag
Average IC50, Kv1.3 current, IonWorks perforated patch clamp, CHL cells [13]: > 1000 nM
EC50 [15]: 380 nM
EC50 [16]: 2.5 nM
IC50 [17]: 1.3 nM
EC50 [18]: 6.2 nM
IC50 (read off the curve) [20]: ~30 nM

B9: A019400004 (other)
chain: EVQLVESGGGLVQAGGSLSLSCTASGGTFRNFGMGWFRQAQGKEREFVAAISRTGGHTYYQDSVKGRFTISKDNAKNILSLQMNSLKPEDTAVYYCAARFRFGDGTYYYQRAFYDFWGQGTQVTVSSGGGGSGGGGSGGGGSGGGGSGGGGSGGGGSGGGGSGGGGSEVQLVESGGGLVQAGGSLSLSCTASGGTFRNFGMGWFRQAQGKEREFVAAISRTGGHTYYQDSVKGRFTISKDNAKNILSLQMNSLKPEDTAVYYCAARFRFGDGTYYYQRAFYDFWGQGTQVTVSS
notes: Bivalent Nanobody construct (family 1 - family 1), expressed in Pichia; also called A019400003-40GS-A019400003
Average IC50, Kv1.3 current, IonWorks perforated patch clamp, CHL cells [1]: > 1000 nM
EC50 [5]: 0.44 nM
EC50 [9]: 2.2 nM
IC50 [10]: 0.64 nM
EC50 [11]: 1.1 nM
